From article doi:10.1101/2021.11.09.467869 (bioRxiv, 2021)

Target: the molecule itself
Assay: SEC + other: negative-staining EM

B1: L6 TIR domain (L6^TIR), residues 26-231 (domain or fragment, UniProt Q40253 26-231, looked up)
chain: PNSKDSIVNDDDDSTSEVDAISDSTNPSGSFPSVEYEVFLSFRGPDTREQFTDFLYQSLRRYKIHTFRDDDELLKGKEIGPNLLRAIDQSKIYVPIISSGYADSKWCLMELAEIVRRQEEDPRRIILPIFYMVDPSDVRHQTGCYKKAFRKHANKFDGQTIQNWKDALKKVGDLKGWHIGKNDKQGAIADKVSADIWSHISKENLI
**Q.** Does B1 bind?
**A.** binds
